According to the supplement of paper PMC9732359:
± gives the uncertainty stated by the source.

Test: protein stability index of a GFP-peptide fusion (yeast GPS) (PSI 1-4); higher = more stable; sorted into four equal gates, so the index is relative within each strain
How it was run: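 Plasmids in a pooled yeast library fused tiled 17-residue yeast protein peptides downstream of GFP and also expressed Cherry. Mid-log cultures grown without leucine were sorted into four equal gates by GFP/Cherry fluorescence ratio. Each gate's plasmids were PCR-amplified and Illumina-sequenced, and reads were matched to strains by barcodes. The protein stability index is derived by multiplying each gate's read frequency by its gate number and summing the results.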

Sequence	protein stability index (doa10∆)	protein stability index (pdr5∆)	protein stability index (san1∆)	protein stability index (ubr1∆)
TAVGKAAVVKTSSRQTV [RPT5]	3.39 ± 0.065	3.23 ± 0.07	3.28 ± 0.074	3.15 ± 0.052
TCSSDQHIKVFKLDKDT [YGL100W/SEH1]	3 ± 0.098	3.07 ± 0.087	3.46 ± 0.087	3.43 ± 0.097
TCVSMAPIQLKIDLLSG [RGR1]	1.67 ± 0.046	1.84 ± 0.062	1.87 ± 0.081	2 ± 0.038
TDAHTPLARNYIKSMDL [RPR2]	2.67 ± 0.044	2.73 ± 0.044	2.68 ± 0.041	2.86 ± 0.032
TDCKFIRVSGAELVQKY [RPT6]	3.01 ± 0.14	3.24 ± 0.16	3.16 ± 0.15	2.93 ± 0.11
TDDYFEELRDLYQTYHV [FAS1]	3.09 ± 0.22	2.69 ± 0.076	3.33 ± 0.15	3.37 ± 0.11
TDIEEGMRVGVDRSKYN [RPT1]	3.13 ± 0.14	3.34 ± 0.27	3.07 ± 0.1	3.13 ± 0.15
TDLESKSRMINFLDAPG [SNU114]	2.65 ± 0.078	2.95 ± 0.094	2.71 ± 0.067	2.8 ± 0.047
TDLNQDSAAIIAATGLN [GRR1]	1.62 ± 0.17	1.32 ± 0.1	1.43 ± 0.22	1.55 ± 0.097
TDQLIQNIETRQLANLI [NUT1]	3.15 ± 0.11	3.14 ± 0.12	2.94 ± 0.13	3.01 ± 0.051
TDSRTGQSTILVGSEIY [CDC53]	2.77 ± 0.056	2.64 ± 0.066	2.94 ± 0.051	2.87 ± 0.065
TDWDPQFNAITGLNGSG [SMC2]	2.94 ± 0.19		2.3 ± 0.19	
TDYFLPKNYSLHGLRSF [YJL039C/NUP192]	1.96 ± 0.061	2.13 ± 0.065	2.12 ± 0.055	2.11 ± 0.064
TEAEETSIHSTISILAA [RRP43]	1.28 ± 0.043	1.63 ± 0.045	1.77 ± 0.068	1.37 ± 0.035
TEAVTQLIGSNIELHSL [PUP1]	3.29 ± 0.2	3.23 ± 0.12	3.44 ± 0.11	2.96 ± 0.13
TEENIKGETNSEISIID [RRP45]	2.96 ± 0.07	3.16 ± 0.064	3.3 ± 0.055	3.22 ± 0.053
TEEVEALLQRLKTNGKQ [MTW1]				3.23 ± 0.21
TEGEPKKKRGFLGLFGR [SRP68]	3.17 ± 0.094	3.46 ± 0.093	2.92 ± 0.068	3.01 ± 0.06
TEGPSDKKLNLNLPLQF [SNF12]	3.12 ± 0.1	3.31 ± 0.093	3.31 ± 0.091	2.87 ± 0.11
TEKNREIYKQLNDRQEE [YIL149C/MLP2]	3.42 ± 0.073	3.41 ± 0.063	3.57 ± 0.042	3.12 ± 0.057
TELKKITDKTIKAFMDS [IRR1]	2.99 ± 0.065	2.42 ± 0.054	2.46 ± 0.072	2.52 ± 0.079
TELSNKETTIEKLSSEI [YIL149C/MLP2]	3.03 ± 0.073	2.96 ± 0.097	3.21 ± 0.072	3.13 ± 0.051
TEQFCATLNYIDKNHGF [SRB7]	2.26 ± 0.055	2.99 ± 0.061	3.2 ± 0.057	2.47 ± 0.052
TEQTKSKNPLSLTEATK [YLR335W/NUP2]	3.08 ± 0.045	2.97 ± 0.053	2.91 ± 0.062	3.14 ± 0.051
TESIALSSMRFKPSQEP [RRI1]	2.85 ± 0.072	3.31 ± 0.064	3.3 ± 0.076	2.86 ± 0.057

Sequence	protein stability index (doa10∆)	protein stability index (pdr5∆)	protein stability index (san1∆)	protein stability index (ubr1∆)
TETKRLVVIRFGRKNDR [DIB1]	2.87 ± 0.11	2.24 ± 0.089	2.03 ± 0.12	2.89 ± 0.065
TFEFINIAFDAHMSIGC [YML031W/NDC1]	1.2 ± 0.074	1.38 ± 0.067	1.19 ± 0.13	1.33 ± 0.062
TFKSVSKYGMLLLRCDD [POP3]	1.89 ± 0.058	2.01 ± 0.067	1.96 ± 0.12	1.72 ± 0.068
TFLPSYMKFSNKYLELC [RRI2]	2.25 ± 0.052	2.35 ± 0.052	2.37 ± 0.073	2.37 ± 0.04
TFSGALGKQSSSLLSRL [FAS2]	3.33 ± 0.097	3.23 ± 0.087	3.22 ± 0.065	2.93 ± 0.073
TFTIQLLKLTKVFIRES [YML103C/NUP188]	2.17 ± 0.063	3.12 ± 0.08	2.46 ± 0.086	2.69 ± 0.12
TFVERLPNETINDRNDR [DIS3]				2.28 ± 0.11
TFVYILEKLIFDMTNHY [SRB8]	1.71 ± 0.061	1.93 ± 0.042	1.69 ± 0.1	1.69 ± 0.039
TGGGLFGSKPTGATSLF [YGL172W/NUP49]	3.45 ± 0.11	3.57 ± 0.1	3.56 ± 0.045	3.62 ± 0.074
TGGQTIDNGTGRTGNGN [MED6]	3.06 ± 0.13	2.82 ± 0.066	3.26 ± 0.079	2.72 ± 0.063
TGKERSKKRKLNSLTNL [SNM1]	2.41 ± 0.11	3.04 ± 0.093	2.89 ± 0.075	2.67 ± 0.13
TGKVSEFISIYSNSHQM [RET1]	2.83 ± 0.092	2.44 ± 0.12	3.03 ± 0.11	2.72 ± 0.073
TGMEPGKTSFFQALGVP [RPP0]	2.89 ± 0.13	3.2 ± 0.098	3.23 ± 0.13	3.17 ± 0.073
TGNIKHEDLVNSIESKN [COR1]	3.13 ± 0.093	2.99 ± 0.11	3.2 ± 0.075	2.96 ± 0.087
TGRLFQVEYALEAIKQG [PRE5]	2.94 ± 0.11	2.5 ± 0.15	3.16 ± 0.17	2.26 ± 0.12
TGVSVEAVDDVFQAKMM [RPN11]	2.8 ± 0.14	3.06 ± 0.12	2.92 ± 0.082	2.87 ± 0.13
TGWHVDQAIVTETKRLV [DIB1]	1.88 ± 0.074	2.24 ± 0.075	2.08 ± 0.25	1.9 ± 0.077
THLHEALDIVCSDFVKI [NUT1]	2.28 ± 0.089	2.48 ± 0.063	2.15 ± 0.11	1.92 ± 0.078
THNFKLSGVSNSMDMVD [RGR1]	3.09 ± 0.068	3 ± 0.074	2.93 ± 0.06	3.08 ± 0.062
TIELAGGGYFSAAGMTA [FAS1]	2.87 ± 0.12	3.19 ± 0.11	1.9 ± 0.16	2.84 ± 0.14
TIFSVMVEWLESRSFSP [PRP8]	2.13 ± 0.077	1.99 ± 0.094	2.15 ± 0.15	1.88 ± 0.059
TIHAKRKIVFRCSECIK [RPN4]	2.39 ± 0.056	2.73 ± 0.066	2.15 ± 0.11	2.59 ± 0.056
TIHRSFTICLNDRNPRL [CSN12]	2.82 ± 0.065	2.76 ± 0.063	2.72 ± 0.069	2.65 ± 0.043
TILSSKLSNIWMQRQLI [SRB2]	2.33 ± 0.11	1.96 ± 0.1	2.76 ± 0.1	2.82 ± 0.051
TINGKVNGRTKSNTIPV [GAL11]	3 ± 0.091	2.77 ± 0.12	3.02 ± 0.099	3.19 ± 0.097

Sequence	protein stability index (doa10∆)	protein stability index (pdr5∆)	protein stability index (san1∆)	protein stability index (ubr1∆)
TISKTVSSTIPRETIPF [FAS2]	2.96 ± 0.072	2.96 ± 0.084	2.75 ± 0.11	2.71 ± 0.052
TISSKPDILATDLIREK [YCS4]		2.54 ± 0.25	3.4 ± 0.26	3.09 ± 0.066
TITTILILGLNTSIAQF [YML103C/NUP188]	1.83 ± 0.039	1.67 ± 0.045	2.32 ± 0.076	2.28 ± 0.04
TIYNLQHHVTDADKLSF [YML031W/NDC1]	1.94 ± 0.04	2.33 ± 0.053	1.98 ± 0.061	2.06 ± 0.04
TKAIQGCSKICDLSSKF [YCS4]	3.15 ± 0.083	3.2 ± 0.069	3.37 ± 0.037	3.06 ± 0.098
TKEYLVQNLRSWETKLK [CSN9]	2.96 ± 0.099	3.33 ± 0.21	3.1 ± 0.092	2.93 ± 0.13
TKHPSLKTLTHKQIHTT [POP7]	2.21 ± 0.039	2.4 ± 0.04	2.21 ± 0.05	2.48 ± 0.04
TKKKRKPTEVNDSENNS [ITC1]	3.26 ± 0.063	3.21 ± 0.081	3.16 ± 0.045	3.27 ± 0.054
TKKLIQKTVFDELCKLV [SRP54]	1.1 ± 0.11	1.51 ± 0.096	1.25 ± 0.18	1.11 ± 0.095
TKKPLMVKNVKPSSPPD [SIR4]	2.93 ± 0.061	2.66 ± 0.039	2.55 ± 0.058	2.69 ± 0.05
TKPEVASDMSDEDIITI [CDC53]	2.89 ± 0.14	2.56 ± 0.24		2.92 ± 0.12
TKQRLDAYYDLELRNSV [PRP8]	2.64 ± 0.046	2.93 ± 0.039	2.86 ± 0.039	2.74 ± 0.035
TKRSIAIVFEEIKNWIS [YMR129W/POM152]	1.41 ± 0.043	1.82 ± 0.045	1.44 ± 0.076	1.91 ± 0.052
TLERVHLSYCSNLTIYP [GRR1]	2.92 ± 0.067	3 ± 0.067	2.99 ± 0.15	3 ± 0.05
TLFVRDQDSAVVSSNIK [QCR2]	2.67 ± 0.23	2.52 ± 0.2		2.67 ± 0.17
TLIDLVKHSPGAIKPFT [ECM29]	2.16 ± 0.2	2.93 ± 0.15	1.95 ± 0.2	2.92 ± 0.099
TLIIDQVRKDLGNVIVP [NUT1]	3.07 ± 0.29		3.12 ± 0.21	2.89 ± 0.14
TLISENWWHSEFEIPVS [BRR2]	1.84 ± 0.11	1.59 ± 0.058	1.8 ± 0.1	1.25 ± 0.059
TLIVVPFNQGSKQDVEA [FAS2]	2.87 ± 0.12	3.2 ± 0.12	3.13 ± 0.09	3.3 ± 0.12
TLQDFHLIFSNARIYNT [SNF2]	2.25 ± 0.081	2.17 ± 0.1	1.63 ± 0.18	2.79 ± 0.073
TLQLGQEFQLKQINHQG [RPB4]	3.22 ± 0.26	3.28 ± 0.15		3.38 ± 0.24
TLSEPVQGELKPTVILK [FAS1]	2.23 ± 0.054	2.22 ± 0.059	2.08 ± 0.072	1.63 ± 0.038
TLVKGPKEPRLKSQMDT [SKI6]	3.09 ± 0.25	3.05 ± 0.13		3.33 ± 0.091
TMANILYYPQKPLGTTR [RPB2]	1.77 ± 0.057	2.47 ± 0.095	2.27 ± 0.074	1.45 ± 0.04
TMFTAEQSELLKAQITS [SNF2]	2.19 ± 0.046	2.5 ± 0.056	2.57 ± 0.058	2.49 ± 0.036
